# Data reported in US20220073646A1 (Hoffmann-La Roche, published 2022).
# Like-named read-outs stand apart in the source and are kept apart here.
# B1: (GITR-FAP) [8A06] 4+1 construct (bispecific antibody, human IgG1, lambda, L234A L235A)
# heavy 1: not shown
# heavy 2: not shown
# light: SSELTQDPAVSVALGQTVRITCQGDSLRSYYASWYQQKPGQAPVLVIYGKNNRPSGIPDRFSGSSSGNTASLTITGAQAEDEADYYCNSPQTSGSAVFGGGTKLTVLGQPKAAPSVTLFPPSSEELQANKATLVCLISDFYPGAVTVAWKADSSPVKAGVETTTPSKQSNNKYAASSYLSLTPEQWKSHRSYSCQVTHEGSTVEKTVAPTECS
# B2: (GITR-FAP) [8A06] 4+2 construct (bispecific antibody, human IgG1, lambda, L234A L235A)
# heavy: not shown
# light 1: SSELTQDPAVSVALGQTVRITCQGDSLRSYYASWYQQKPGQAPVLVIYGKNNRPSGIPDRFSGSSSGNTASLTITGAQAEDEADYYCNSPQTSGSAVFGGGTKLTVLGQPKAAPSVTLFPPSSEELQANKATLVCLISDFYPGAVTVAWKADSSPVKAGVETTTPSKQSNNKYAASSYLSLTPEQWKSHRSYSCQVTHEGSTVEKTVAPTECS
# light 2: EIVLTQSPGTLSLSPGERATLSCRASQSVSRSYLAWYQQKPGQAPRLLIIGASTRATGIPDRFSGSGSGTDFTLTISRLEPEDFAVYYCQQGQVIPPTFGQGTKVEIKSSASTKGPSVFPLAPSSKSTSGGTAALGCLVKDYFPEPVTVSWNSGALTSGVHTFPAVLQSSGLYSLSSVVTVPSSSLGTQTYICNVNHKPSNTKVDKKVEPKSC
# B3: 49B4 P329GLALA IgG1 (antibody, V domains shown)
# VH: QVQLVQSGAEVKKPGSSVKVSCKASGGTFSSYAISWVRQAPGQGLEWMGGIIPIFGTANYAQKFQGRVTITADKSTSTAYMELSSLRSEDTAVYYCAREYYRGPYDYWGQGTTVTVSS
# VL: DIQMTQSPSTLSASVGDRVTITCRASQSISSWLAWYQQKPGKAPKLLIYDASSLESGVPSRFSGSGSGTEFTLTISSLQPDDFATYYCQQYSSQPYTFGQGTKVEIKR
# notes: anti-OX40; sometimes misprinted 49B9; also called 49B4 IgG1; hu IgG1 (49B4)
# B4: 9B11 P329GLALA IgG1 (antibody, V domains shown)
# VH: QVQLVQSGAEVKKPGSSVKVSCKASGGTFSSYAISWVRQAPGQGLEWMGGIIPIFGTANYAQKFQGRVTITADKSTSTAYMELSSLRSEDTAVYYCARSSGAYPGYFDYWGQGTTVTVSS
# VL: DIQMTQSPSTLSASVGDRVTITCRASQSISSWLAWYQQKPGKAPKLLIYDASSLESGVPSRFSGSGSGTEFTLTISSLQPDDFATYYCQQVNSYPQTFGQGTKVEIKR
# notes: anti-4-1BB
# B5: clone 20G2 Fab (Fab, V domains shown)
# VH: QVQLVQSGAEVKKPGSSVKVSCKASGGTFSSYAISWVRQAPGQGLEWMGGIIPIFGTANYAQKFQGRVTITADKSTSTAYMELSSLRSEDTAVYYCARSYYWESYPFDYWGQGTTVTVSS
# VL: DIQMTQSPSTLSASVGDRVTITCRASQSISSWLAWYQQKPGKAPKLLIYDASSLESGVPSRFSGSGSGTEFTLTISSLQPDDFATYYCQQQHSYYTFGQGTKVEIK
# notes: phage library Fab with CH1/CL and tags
# B6: clone 17A9 Fab (Fab, V domains shown)
# VH: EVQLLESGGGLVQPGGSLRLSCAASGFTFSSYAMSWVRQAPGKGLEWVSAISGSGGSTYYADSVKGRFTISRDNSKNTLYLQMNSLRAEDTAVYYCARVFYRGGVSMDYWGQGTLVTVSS
# VL: SSELTQDPAVSVALGQTVRITCQGDSLRSYYASWYQQKPGQAPVLVIYGKNNRPSGIPDRFSGSSSGNTASLTITGAQAEDEADYYCNSRVMPHNRVFGGGTKLTV
# notes: as for B5
# B7: 12B3/FAP P329GLALA IgG1 2+2 (bispecific antibody)
# heavy: not shown
# light 1: not shown
# light 2: EIVLTQSPGTLSLSPGERATLSCRASQSVSRSYLAWYQQKPGQAPRLLIIGASTRATGIPDRFSGSGSGTDFTLTISRLEPEDFAVYYCQQGQVIPPTFGQGTKVEIKSSASTKGPSVFPLAPSSKSTSGGTAALGCLVKDYFPEPVTVSWNSGALTSGVHTFPAVLQSSGLYSLSSVVTVPSSSLGTQTYICNVNHKPSNTKVDKKVEPKSCD
# notes: also called 12B3×FAP (28H1) 2+2
# How the values were obtained:
# [1] = biological target: T1, recombinant human GITR Fc(kih) (human, UniProt P0DOX5 223-449 = IgG part, biotin on C-terminal Avi tag where used biotinylated); test: SPR, GITR Fc(kih) on SA chip, FAP second analyte
# T1 construct: also called hu GITR-Fc; human monomeric GITR-Fc fusion
# Description: (§1) All SPR experiments were performed on a Biacore T200 at 25° C. with HBS-EP as running buffer (0.01 M HEPES pH 7.4, 0.15 M NaCl, 3 mM EDTA, 0.005% Surfactant P20, Biacore, Freiburg/Germany). […] Immobilization levels up to 1000 resonance units (RU) were used. The bispecific constructs targeting GITR and FAP were passed at a concentration range of 200 nM with a flow of 30 μL/minute through the flow cells over 90 seconds and dissociation was set to zero sec. Human FAP was injected as second analyte with a flow of 30 μL/minute through the flow cells over 90 seconds at a concentration of 500 nM. The dissociation was monitored for 120 sec. Bulk refractive index differences were corrected for by subtracting the response obtained in a reference flow cell, where no protein was immobilized.
# [2] = biological target: T2, human fibroblast activation protein (huFAP) on cells (human, UniProt Q12884 1-760); test: flow cytometry, 3T3-huFAP
# T2 construct: also called NIH/3T3-huFAP clone 39; NIH/3T3-huFAP clone 19
# [3] = biological target: T3, human GITR on HEK cells (HEK-GITR) (human, UniProt Q9Y5U5 26-241); test: flow cytometry, HEK-GITR
# T3 construct: also called cell surface expressed human GITR
# T3 sequence: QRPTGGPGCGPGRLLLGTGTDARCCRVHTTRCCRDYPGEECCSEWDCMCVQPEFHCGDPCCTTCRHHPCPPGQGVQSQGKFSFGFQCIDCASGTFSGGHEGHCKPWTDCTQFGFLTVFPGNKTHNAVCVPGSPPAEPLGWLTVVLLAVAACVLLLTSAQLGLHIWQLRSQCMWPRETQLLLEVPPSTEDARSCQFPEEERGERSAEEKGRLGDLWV
# Description: Cells were washed twice with complete media and once with PBS+2% FBS before adjusting cell density to 1×10⁷ cells/mL in PBS+2% FBS.
# Plates were centrifuged at 4° C., 3 minutes at 600×g and supernatant was flicked off. Cells were resuspended in 50 μL/well of 4° C. cold PBS+2% FBS containing titrated anti-GITR antibody constructs for 120 minutes at 4° C. Plates were washed twice with 200 μL/well 4° C. PBS+2% FBS to remove unbound construct. […] Plates were centrifuged at 4° C. for 3 minutes at 600×g and washed twice with PBS+2% FBS. […] Plates were centrifuged at 4° C., 3 minutes at 600×g and supernatant was flicked off.
# [4] = biological target: T4, human FAP (His-tagged ectodomain) (human, UniProt Q12884 27-760); test: SPR, GITR Fc(kih) on SA chip, FAP second analyte
# T4 construct: SPR texts say 'human FAP' or 'His-tagged ... dimeric FAP'; also called hu FAP; human FAP (analyte 2)
# Description: as §1
# human OX40 on cells [5] = biological target: T5, human OX40 on cells (human, UniProt P43489 29-277); test: flow cytometry, activated human CD4 T cells
# T5 sequence: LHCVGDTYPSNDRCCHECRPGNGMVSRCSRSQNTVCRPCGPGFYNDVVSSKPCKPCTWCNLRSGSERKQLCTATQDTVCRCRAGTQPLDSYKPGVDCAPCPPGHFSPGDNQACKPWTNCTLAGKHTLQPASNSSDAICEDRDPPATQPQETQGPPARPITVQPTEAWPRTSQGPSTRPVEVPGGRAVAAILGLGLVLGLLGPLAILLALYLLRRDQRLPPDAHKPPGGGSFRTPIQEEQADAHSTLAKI
# Description: Plates were centrifuged 4 minutes with 400×g and at 4° C. and supernatant was flicked off. Cell were washed once with 200 μL 4° C. cold FACS buffer (DPBS supplied with 2% FBS, 5 mM EDTA pH8 (Amresco, Cat. No. E177) and 7.5 mM Sodium azide (Sigma-Aldrich S2002)). […] Plates were washed four times with 200 μL/well 4° C. FACS buffer to remove unbound construct.
# Plates where washed twice with 200 μL/well 4° C.
# human OX40 on cells [6] = biological target: T5, human OX40 on cells; test: cell-based or functional assay
# [7] = biological target: T6, huOX40-SNAP fusion on Hek293 EBNA cells (human, UniProt P43489 29-277, labeled with the FRET donor Terbium); test: cell FRET competition against d2-labeled (49B4) IgG
# T6 construct: not shown: SNAP tag
# T6 sequence: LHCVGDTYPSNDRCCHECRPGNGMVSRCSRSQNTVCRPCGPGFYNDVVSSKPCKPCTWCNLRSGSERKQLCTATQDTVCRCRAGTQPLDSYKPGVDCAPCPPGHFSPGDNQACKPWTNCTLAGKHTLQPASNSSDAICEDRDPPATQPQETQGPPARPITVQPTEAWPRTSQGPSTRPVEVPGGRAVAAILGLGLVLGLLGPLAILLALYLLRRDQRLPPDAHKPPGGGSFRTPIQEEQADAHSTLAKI
# human OX40 on cells [8] = biological target: T5, human OX40 on cells; test: flow cytometry, activated human CD4 T cells; remark: listed apart in the source
# [9] = biological target: T7, recombinant human OX40 Fc(kih) (human, UniProt P0DOX5 223-449 = IgG part, biotin on C-terminal Avi tag where used biotinylated); test: SPR, captured IgG, OX40 Fc(kih) analyte
# T7 construct: antigen Fc knob chain plus Fc hole chain; also called monomeric human OX40 antigen Fc(kih) fusion; biotinylated human OX40
# Description: (§2) All SPR experiments were performed on a Biacore T200 at 25° C. with HBS-EP as running buffer (0.01 M HEPES pH 7.4, 0.15 M NaCl, 3 mM EDTA, 0.005% Surfactant P20, Biacore, Freiburg/Germany).
# Setup 1) Anti-human Fab antibody (Biacore, Freiburg/Germany) was directly coupled on a CM5 chip at pH 5.0 using the standard amine coupling kit (Biacore, Freiburg/Germany). The immobilization level was approximately 9000 RU. […] The dissociation was monitored for 120 seconds. Bulk refractive index differences were corrected for by subtracting the response obtained on reference flow cell.
# [10] = biological target: T2, human fibroblast activation protein …; test: flow cytometry, WM266-4 cells
# human OX40 on cells [11] = biological target: T5, human OX40 on cells; test: cell-based or functional assay; remark: listed apart in the source
# [12] = biological target: T8, cynomolgus OX40 on activated cynomolgus PBMC (cynomolgus, UniProt P43489 29-214 (human entry)); test: flow cytometry, activated cynomolgus CD4 T cells
# T8 construct: whole, on cells
# T8 chain: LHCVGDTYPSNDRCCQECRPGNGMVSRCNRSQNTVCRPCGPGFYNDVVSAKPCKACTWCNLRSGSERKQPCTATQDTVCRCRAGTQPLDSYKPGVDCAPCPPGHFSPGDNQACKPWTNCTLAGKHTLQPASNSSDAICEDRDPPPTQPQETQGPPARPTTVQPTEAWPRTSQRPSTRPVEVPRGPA
# Description: Then, plates were washed four times with 200 μL/well 4° C. FACS buffer. […] Plates where washed twice with 200 μL/well 4° C.
# [13] = biological target: T9, recombinant human OX40 His (human); test: SPR, captured IgG, OX40 His analyte
# T9 construct: ectodomain with avi and hexahistidine tag; also called human Ox40 avi His
# T9 chain: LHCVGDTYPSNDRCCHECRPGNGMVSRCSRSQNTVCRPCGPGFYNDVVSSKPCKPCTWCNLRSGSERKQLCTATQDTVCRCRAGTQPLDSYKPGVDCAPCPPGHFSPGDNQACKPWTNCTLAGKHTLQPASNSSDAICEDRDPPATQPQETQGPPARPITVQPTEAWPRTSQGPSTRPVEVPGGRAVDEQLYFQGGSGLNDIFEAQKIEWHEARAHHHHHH
# Description: as §2
# Setup 2) Anti-human Fc antibody (Biacore, Freiburg/Germany) was directly coupled on a CM5 chip at pH 5.0 using the standard amine coupling kit (Biacore, Freiburg/Germany). The immobilization level was approximately 8000 RU. […] The dissociation was monitored for 120 seconds. Bulk refractive index differences were corrected for by subtracting the response obtained on reference flow cell.
# [14] = biological target: recombinant cynomolgus OX40 Fc(kih) (cynomolgus, UniProt P0DOX5 223-449 = IgG part, biotin on C-terminal Avi tag where used biotinylated); test: SPR, captured IgG, cyno OX40 Fc(kih) analyte
# Description: as §2
# Anti-human Fab antibody (Biacore, Freiburg/Germany) was directly coupled on a CM5 chip at pH 5.0 using the standard amine coupling kit (Biacore, Freiburg/Germany). The immobilization level was approximately 9000 RU. […] The dissociation was monitored for 120 seconds. Bulk refractive index differences were corrected for by subtracting the response obtained on reference flow cell.
# [15] = biological target: T10, cynomolgus 4-1BB on activated cynomolgus PBMC (cynomolgus, UniProt Q07011 24-255 (human entry)); test: flow cytometry, activated cynomolgus PBMC
# T10 chain: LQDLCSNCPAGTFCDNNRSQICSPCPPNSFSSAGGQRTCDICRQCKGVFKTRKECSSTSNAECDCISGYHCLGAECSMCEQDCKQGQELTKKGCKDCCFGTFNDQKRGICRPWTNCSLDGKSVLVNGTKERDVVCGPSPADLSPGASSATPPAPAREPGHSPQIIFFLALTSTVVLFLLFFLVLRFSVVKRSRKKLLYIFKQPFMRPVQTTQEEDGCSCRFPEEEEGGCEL
# Description: Cells were washed twice with FACS buffer and resuspended in 100 μL/well FACS buffer supplied with 0.2 μg/mL DAPI to discriminated dead from living cells. Cells were immediately acquired using a 5-laser Fortessa (BD Bioscience with DIVA software). Gates were set on CD8⁺ and CD4⁺ T cells and the median fluorescence intensity (MFI) of the secondary detection antibody was used to analyze binding of primary antibodies. Using Graph Pad Prism (Graph Pad Software Inc.) data was baselined by subtracting the blank values (no primary antibody added) and the EC₅₀ values were calculated using non-linear regression curve fit (robust fit).
# [16] = biological target: recombinant cynomolgus 4-1BB Fc(kih) (cynomolgus, UniProt P0DOX5 223-449 = IgG part, biotin on C-terminal Avi tag where used biotinylated); test: SPR, captured IgG, cyno 4-1BB Fc(kih) analyte
# Description: as §2
# Anti-human Fab antibody (Biacore, Freiburg/Germany) was directly coupled on a CM5 chip at pH 5.0 using the standard amine coupling kit (Biacore, Freiburg/Germany). The immobilization level was approximately 9000 RU.
# human 4-1BB on cells [17] = biological target: T11, human 4-1BB on cells (human, UniProt Q07011 24-255); test: cell-based or functional assay
# [18] = biological target: T12, recombinant human 4-1BB Fc(kih) (human, UniProt P0DOX5 223-449 = IgG part, biotin on C-terminal Avi tag where used biotinylated); test: SPR, captured IgG, 4-1BB Fc(kih) analyte
# T12 construct: also called hu4-1BB; biotinylated human 4-1BB
# Description: as §2
# Anti-human Fab antibody (Biacore, Freiburg/Germany) was directly coupled on a CM5 chip at pH 5.0 using the standard amine coupling kit (Biacore, Freiburg/Germany). The immobilization level was approximately 7500 RU. […] The dissociation was monitored for 120 seconds. Bulk refractive index differences were corrected for by subtracting the response obtained on reference flow cell.
# human 4-1BB on cells [19] = biological target: T11, human 4-1BB on cells; test: flow cytometry, activated human CD8 T cells
# Description: (§3) Plates were centrifuged 4 minutes with 400×g at 4° C. and supernatant was discarded. […] Afterwards cells were washed once with 200 μL/well cold FACS buffer (DPBS supplied with 2% (v/v) FBS, 5 mM EDTA pH8 (Amresco, Cat. No. E177) and 7.5 mM sodium azide (Sigma-Aldrich S2002)). […] Cells were washed four times with 200 μL/well 4° C.
# Cells were washed twice with 200 μL FACS buffer/well and fixated by resuspending in 50 μL/well DPBS containing 1% Formaldehyde (Sigma, HT501320-9.5L). Cells were acquired the same or next day using a 3-laser Canto II (BD Bioscience with DIVA software) or a 5-laser Fortessa (BD Bioscience with DIVA software) or 3-laser MACSQuant Analyzer 10 (Miltenyi Biotech). Gates were set on CD8⁺ and CD4⁺ T cells and the median fluorescence intensity (MFI) or geo mean of fluorescence intensity of the secondary detection antibody was used to analyze binding of primary antibodies. Using Graph Pad Prism (Graph Pad Software Inc.) data was baselined by subtracting the blank values (no primary antibody added) and the EC50 values were calculated using non-linear regression curve fit (robust fit).
# [20] = biological target: mouse 4-1BB on activated mouse splenocytes (mouse, UniProt P20334 24-256); test: flow cytometry, activated mouse T cells
# Description: Cells were incubated for 30 min at 4° C., washed twice with 200 μL/well FACS-buffer and resuspended for fixation with 50 μL/well DPBS containing 1% (v/v) formaldehyde. The next day cells were resuspended in 200 μL/well FACS buffer and acquired using the 2-laser Cantoll (BD Bioscience with DIVA software) or 5-laser Fortessa (BD Bioscience with DIVA software). Gates were set on CD8⁺ and CD4⁺ T cells and the median fluorescence intensity (MFI) of the secondary detection antibody was used to analyze binding of primary antibodies. Using Graph Pad Prism (Graph Pad Software Inc.) data was baselined by subtracting the blank values (no primary antibody added) and the EC₅₀ values were calculated using non-linear regression curve fit (robust fit).
# [21] = biological target: T13, recombinant murine 4-1BB Fc(kih) (murine, UniProt P0DOX5 223-449 = IgG part, biotin on C-terminal Avi tag where used biotinylated); test: phage display, Fab screening
# T13 construct: also called mu4-1BB
# [22] = biological target: T7, recombinant human OX40 Fc(kih); test: phage display, Fab ELISA
# human 4-1BB on cells [23] = biological target: T11, human 4-1BB on cells; test: flow cytometry, activated human CD8+ T cells
# Description: as §3
# Cells were washed twice with 200 μL FACS buffer/well and fixated by resuspending in 50 μL/well DPBS containing 1% Formaldehyde (Sigma, HT501320-9.5L). Cells were acquired the same or next day using 3-laser MACSQuant Analyzer 10 (Miltenyi Biotech). Gates were set on CD8⁺ and CD4⁺ T cells and the geo mean of fluorescence intensity (MFI) of the secondary detection antibody was used to analyze binding of primary antibodies. Using Graph Pad Prism (Graph Pad Software Inc.) data was baselined by subtracting the blank values (no primary antibody added) and the EC₅₀ values were calculated using non-linear regression curve fit (robust fit).
# human 4-1BB on cells [24] = biological target: T11, human 4-1BB on cells; test: cell-based or functional assay; remark: listed apart in the source
# [25] = biological target: T2, human fibroblast activation protein …; test: flow cytometry, NIH/3T3-huFAP clone 19
# Description: Cells were maintained in the presence of 1.5 μg/mL puromycin (InvivoGen, Cat.-No.: ant-pr-5). […] Plates were incubated for 30 minutes at 4° C. and washed once with 200 μL 4° C. cold DPBS buffer. […] Cells were washed twice with 200 μL 4° C. FACS buffer and then resuspended in 50 μL/well DPBS containing 1% Formaldehyde for fixation. The same or the next day cells were resuspended in 100 μL FACS-buffer and acquired using 5-laser LSR-Fortessa (BD Bioscience with DIVA software) or MACSQuant Analyzer 10 (Miltenyi Biotec).
# mouse 4-1BB on activated mouse splenocytes, sequence (P20334 24-256 limits assumed): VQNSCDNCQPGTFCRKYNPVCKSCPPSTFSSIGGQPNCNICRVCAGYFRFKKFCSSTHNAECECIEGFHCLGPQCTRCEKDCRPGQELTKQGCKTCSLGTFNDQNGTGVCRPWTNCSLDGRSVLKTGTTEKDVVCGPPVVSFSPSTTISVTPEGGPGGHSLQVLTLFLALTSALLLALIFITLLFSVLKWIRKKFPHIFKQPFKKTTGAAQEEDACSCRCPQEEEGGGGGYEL
binder,measurement,setting,value
B1,binding result,[1],binds
B2,binding result,[2],binds
same,EC50,[3],3.85 nM
same,binding result,[4],binds
B3,EC50,human OX40 on cells [5],4.19 nM
same,EC50 of NFκB activation in HeLa_hOx40_NFκB_luc1 reporter cells with secondary anti-human IgG Fcγ antibody,human OX40 on cells [6],2.42 nM
same,EC50,[7],12.7 nM
same,EC50,human OX40 on cells [8],907 nM
same,Kd,[9],510 nM
same,koff,[9],0.13 s⁻¹
same,kon,[9],250000 M⁻¹ s⁻¹
same,binding result,[10],no binding
same,EC50 of rescuing suboptimal TCR stimulation with plate-immobilized anti-OX40 binder (preactivated human CD4 T cells),human OX40 on cells [11],0.591 nM
same,EC50,[12],0.05 nM
same,Kd,[13],460 nM
same,koff,[13],0.67 s⁻¹
same,kon,[13],1.4e+06 M⁻¹ s⁻¹
same,Kd,[14],350 nM
same,koff,[14],0.038 s⁻¹
same,kon,[14],110000 M⁻¹ s⁻¹
B4,binding result,[15],binds
same,Kd,[16],78 nM
same,koff,[16],0.002 s⁻¹
same,kon,[16],26000 M⁻¹ s⁻¹
same,EC50 of increase of IFNγ secretion in activated CD8+ T cells (surface-immobilized IgG),human 4-1BB on cells [17],0.12 nM
same,Kd,[18],140 nM
same,koff,[18],0.0039 s⁻¹
same,kon,[18],27000 M⁻¹ s⁻¹
same,EC50,human 4-1BB on cells [19],4.49 nM
same,binding result,[20],no binding
B5,binding result,[21],binds
B6,binding result,[22],binds
B7,EC50,human 4-1BB on cells [23],2 nM
same,"EC50 of NFκB/luciferase activation, 4-1BB reporter HeLa with NIH/3T3-huFAP clone 19",human 4-1BB on cells [24],0.2 nM
same,EC50,[25],12.2 nM
